A short description of series [1]: cell surface flow cytometry, mAb BH026, Expi293. As to conditions: control: unmutated MeV-H genotype A.
Series [2] is described as follows: Western blot of transfected Vero cell lysates (total). The settings on record: control: unmutated MeV-H genotype A.

B1: MeV-H genotype A (measles virus envelope hemagglutinin protein): N200D (protein)
parent chain: MSPQRDRINAFYKDNPHPKGSRIVINREHLMIDRPYVLLAVLFVMFLSLIGLLAIAGIRLHRAAIYTAEIHKSLSTNLDVTNSIEHQVKDVLTPLFKIIGDEVGLRTPQRFTDLVKLISDKIKFLNPDREYDFRDLTWCINPPERIKLDYDQYCADVAAEELMNALVNSTLLETRTTNQFLAVSKGNCSGPTTIRGQFSNMSLSLLDLYLGRGYNVSSIVTMTSQGMYGGTYLVEKPNLSSKRSELSQLSMYRVFEVGVIRNPGLGAPVFHMTNYLEQPVSNDLSNCMVALGELKLAALCHGEDSITIPYQGSGKGVSFQLVKLGVWKSPTDMQSWVPLSTDDPVIDRLYLSSHRGVIADNQAKWAVPTTRTDDKLRMETCFQQACKGKIQALCENPEWAPLKDNRIPSYGVLSVDLSLTVELKIKIASGFGPLITHGSGMDLYKSNHNNVYWLTIPPMKNLALGVINTLEWIPRFKVSPYLFTVPIKEAGEDCHAPTYLPAEVDGDVKLSSNLVILPGQDLQYVLATYDTSRVEHAVVYYVYSPSRSFSYFYPFRLPIKGVPIELQVECFTWDQKLWCRHFCVLADSESGGHITHSGMVGMGVSCTVTREDGTNRR
For the protein B1, the expression_or_secretion entry in series [1] (glycan lost) and in series [2] (glycan lost) was “decreases” in each case.

B2: MeV-H genotype A (measles virus envelope hemagglutinin protein): D416N (protein)
parent chain: B1 parent chain
In the case of B2, the expression_or_secretion result in series [1] (glycan gained) and in series [2] (glycan gained) was “no change” throughout.

The values above are taken from publication PMC5821319.
